Data from the supplement of paper PMC9732359.
± gives the uncertainty stated by the source.

Assay: protein stability index of a GFP-peptide fusion (yeast GPS) (PSI 1-4); higher = more stable; sorted into four equal gates, so the index is relative within each strain
In short: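 Yeast carrying a pooled library were grown to mid-log phase in leucine-free medium. Each library plasmid expresses Cherry and has a tiled 17-residue yeast protein peptide fused downstream of GFP. Cells were sorted into four equal gates by GFP/Cherry ratio, and plasmids from each gate were PCR-amplified, Illumina-sequenced and assigned to strains by barcode. Summing, across gates, the read frequency times the gate number gave each peptide's protein stability index.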

Sequence	protein stability index (doa10∆)	protein stability index (pdr5∆)	protein stability index (san1∆)	protein stability index (ubr1∆)
IEQCKHPLHELIIQYPP [ISW2]	3.19 ± 0.1	2.82 ± 0.094	2.59 ± 0.1	3.1 ± 0.068
GEEDADEEETAEGQTNS [RPN1]	3.26 ± 0.18	3.16 ± 0.26	3.01 ± 0.14	–
STEETTANTGTIGKRRT [TAF14]	3.07 ± 0.13	3.27 ± 0.1	3.38 ± 0.088	2.77 ± 0.12
DVTPADDLKQKKEELVE [RPO31]	3.12 ± 0.16	3.25 ± 0.093	3.08 ± 0.15	3.24 ± 0.12
RNIILEARFDVLITSYE [ISW2]	2.85 ± 0.11	2.22 ± 0.076	2.41 ± 0.088	2.61 ± 0.074
STEYMMQFAKSKTVKVL [RPN6]	1.1 ± 0.064	1.2 ± 0.073	1.2 ± 0.2	1.07 ± 0.094
IDFFKTDDSFEDKVFAS [BRN1]	3.02 ± 0.13	2.88 ± 0.06	3 ± 0.093	2.89 ± 0.06
YDSRPLEEDSKKVNGTS [PRP8]	2.99 ± 0.23	3.53 ± 0.17	3.21 ± 0.098	2.94 ± 0.11
PNTTKTKLRAFVYNKVN [YGR119C/NUP57]	2.47 ± 0.21	–	–	–
AKHAVSEGTRAVTKYSS [HTB1]	3 ± 0.08	3.21 ± 0.11	3.41 ± 0.075	3.12 ± 0.09
ISLLCKNFKGIEEIEYN [PCI8]	2.94 ± 0.082	3.31 ± 0.075	3.11 ± 0.04	3.01 ± 0.061
PAKVEDVQKSSDSSSED [YLR335W/NUP2]	2.84 ± 0.1	2.41 ± 0.097	2.4 ± 0.11	1.65 ± 0.053
NISRDFQSYIVSSLPGS [COR1]	1.63 ± 0.093	2.14 ± 0.095	2.08 ± 0.098	1.85 ± 0.048
ATANATANATANVNASA [DSN1]	2.78 ± 0.043	3 ± 0.037	3.17 ± 0.032	2.918 ± 0.025
YEAGASHGNPVVDFLKR [FAS1]	3.17 ± 0.09	3.13 ± 0.099	3.35 ± 0.07	3.25 ± 0.044
IVHHPYQSLKQIVQVLK [SSN8]	1.24 ± 0.061	1.58 ± 0.099	1.18 ± 0.14	1.25 ± 0.072
INQKALRKIQALRDVKN [GAL11]	–	1.26 ± 0.25	–	–
LDRRFEIFFKKDSLWQS [FAS1]	3.15 ± 0.13	3.16 ± 0.11	2.52 ± 0.26	2.91 ± 0.061
VAEIVQNVISLGSLTVE [RPC82]	1.97 ± 0.068	2.23 ± 0.098	1.97 ± 0.14	1.68 ± 0.11
IGGSDAAFEKRYRVDLL [RPO21]	3.32 ± 0.074	3.39 ± 0.067	3.25 ± 0.04	3.32 ± 0.053
EAESLLQFHVATYMDND [RPO21]	2.82 ± 0.1	2.7 ± 0.13	2.7 ± 0.073	2.94 ± 0.15
FSFSKSEEERKSSPISN [YOR098C/NUP1]	2.48 ± 0.11	2.23 ± 0.071	2.41 ± 0.091	2.94 ± 0.084
LPLWHLLNRIPRMYHIG [POP1]	3.06 ± 0.17	2.97 ± 0.15	2.06 ± 0.21	2.63 ± 0.15
SKEKANFLETIASTEKP [SIR4]	2.26 ± 0.069	2.28 ± 0.055	2.04 ± 0.1	2.64 ± 0.058
KDGSNPRTLIGHRATVT [RPN14]	–	3.31 ± 0.26	3.07 ± 0.14	–
VSQQPLSRGYTCPGLSL [ECM29]	3.02 ± 0.056	2.97 ± 0.04	3.02 ± 0.051	2.93 ± 0.044
KIEGVATPQEAQFYLGK [RPL33B]	2.87 ± 0.083	3.03 ± 0.098	2.91 ± 0.091	3 ± 0.072
